Laboratory results from US20130122013A1 (Eli Lilly, published 2013).

Assays:
human ferroportin 1 [1] = biological target: T1, human ferroportin 1 (human, UniProt Q9NP59 1-571); test: inhibition of binding of 30 nM biotinylated hepcidin to FPN/293 cells, ELISA of lysate; antibody at 31.25 nM; mean
T1 construct: also called human FPN1; FPN1
T1 sequence: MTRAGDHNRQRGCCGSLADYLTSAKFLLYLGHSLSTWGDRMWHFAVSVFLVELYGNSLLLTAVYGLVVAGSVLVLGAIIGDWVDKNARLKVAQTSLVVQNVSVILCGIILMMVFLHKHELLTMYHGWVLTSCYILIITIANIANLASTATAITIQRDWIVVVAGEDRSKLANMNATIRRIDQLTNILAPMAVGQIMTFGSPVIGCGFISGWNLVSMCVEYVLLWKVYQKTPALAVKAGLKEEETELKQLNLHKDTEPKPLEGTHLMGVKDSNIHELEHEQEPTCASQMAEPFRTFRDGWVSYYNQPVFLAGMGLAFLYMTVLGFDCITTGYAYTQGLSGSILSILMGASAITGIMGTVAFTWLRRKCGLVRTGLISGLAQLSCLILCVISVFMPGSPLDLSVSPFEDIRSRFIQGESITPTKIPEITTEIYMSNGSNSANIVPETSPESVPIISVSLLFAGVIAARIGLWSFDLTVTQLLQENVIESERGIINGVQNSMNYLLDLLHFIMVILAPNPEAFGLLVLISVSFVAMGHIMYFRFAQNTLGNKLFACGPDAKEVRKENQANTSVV
Method: (§1) Next, 65 μL of lysing buffer (0.5% Triton X-100, 10 mM EDTA) are added to all the wells and the plates are shaken for 10 minutes. Next, 50 μL of the solution in each well is transferred to individual wells of a streptavidin coated Greiner microtiter plate (60 μL of 2 μg/mL streptavidin (Sigma, St. Louis, Mo.; catalog no. S4762) in PBS, incubated at 4° C. overnight, washed 2 times (0.1% Tween 20, TBS), blocked with casein/PBS), and then incubated for one hour at room temperature. […] After incubating one hour at room temperature, the plate is washed 4× and 50 μL of OPD substrate (Sigma; catalog no. P6912) is added. The reaction is stopped with 100 μL 1 N HCl after 4 minutes. Absorbance at 490 nm (A₄₉₀) is read using an appropriate ELISA plate reader.

[2] = biological target: T2, human FPN1 C-terminally fused with GFP (human, UniProt Q9NP59 1-571, GFP reporter fused to the C-terminus ("FPN1 is C-terminally fused with GFP"). It is left out because the patent gives no letters for it.); test: cell-based or functional assay
T2 sequence: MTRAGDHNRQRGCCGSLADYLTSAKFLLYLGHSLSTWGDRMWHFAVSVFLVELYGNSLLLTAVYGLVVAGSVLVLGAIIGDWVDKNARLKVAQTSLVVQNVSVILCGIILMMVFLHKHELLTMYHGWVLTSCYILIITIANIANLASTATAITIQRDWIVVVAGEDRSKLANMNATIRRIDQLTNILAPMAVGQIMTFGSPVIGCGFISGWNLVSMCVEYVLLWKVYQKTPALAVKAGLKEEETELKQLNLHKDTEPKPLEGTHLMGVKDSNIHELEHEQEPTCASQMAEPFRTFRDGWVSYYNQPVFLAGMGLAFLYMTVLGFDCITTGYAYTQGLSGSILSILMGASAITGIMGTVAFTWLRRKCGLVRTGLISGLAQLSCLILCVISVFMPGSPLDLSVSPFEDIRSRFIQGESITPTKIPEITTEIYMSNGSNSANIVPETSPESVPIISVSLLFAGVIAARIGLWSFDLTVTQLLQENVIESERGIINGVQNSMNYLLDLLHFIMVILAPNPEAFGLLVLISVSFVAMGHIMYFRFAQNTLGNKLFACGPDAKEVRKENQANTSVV

human ferroportin 1 [3] = biological target: T1, human ferroportin 1; test: cell-based or functional assay
human ferroportin 1 [4] = biological target: T1, human ferroportin 1; test: inhibition of binding of 30 nM biotinylated hepcidin to FPN/293 cells, ELISA of lysate; antibody at 7.8 nM; mean
Method: as §1

human ferroportin 1 [5] = biological target: T1, human ferroportin 1; test: inhibition of binding of 30 nM biotinylated hepcidin to FPN/293 cells, ELISA of lysate; antibody at 2000 nM; mean
Method: as §1

human ferroportin 1 [6] = biological target: T1, human ferroportin 1; test: inhibition of binding of 30 nM biotinylated hepcidin to FPN/293 cells, ELISA of lysate; antibody at 500 nM; mean
Method: as §1

human ferroportin 1 [7] = biological target: T1, human ferroportin 1; test: inhibition of binding of 30 nM biotinylated hepcidin to FPN/293 cells, ELISA of lysate; antibody at 125 nM; mean
Method: as §1

[8] = biological target: T2, human FPN1 C-terminally fused with GFP; test: cell-based or functional assay; remark: listed apart in the source
human ferroportin 1 [9] = biological target: T1, human ferroportin 1; test: inhibition of binding of 30 nM biotinylated hepcidin to FPN/293 cells, ELISA of lysate
Method: as §1

[10] = biological target: T2, human FPN1 C-terminally fused with GFP; test: SPR, Biacore T100, 37 C, 1:1 model; FPN1-GFP captured from cell lysate on rabbit anti-GFP antibody, Mab injected
Method: (§2) The affinities of FPN1 binding Fabs and Mabs may be determined on Biacore T100 and using 1:1 binding model in the Biacore T100 evaluation software (BIAcore® AB, Upsala, Sweden). […] FPN1 is C-terminally fused with GFP. Expression of FPN1-GFP is induced by 1-10 ng/mL doxycycline for 1-24 hours. Induced cells are harvested by scraping off from flasks and then washed with 1×PBS. Cell pellets can be stored at −80° C. before use. About five million induced cells are resuspended in 10 mM phosphate buffer with 0.2% Tween-20 and protease inhibitors, e.g., Complete™ Protease Inhibitor Cocktail Tablet (Roche Diagnostics Corp., Indianapolis, Ind.). Three cycles of freeze/thaw/sonication are used to lyse the cells. The lysate is diluted two-fold with Biacore running buffer and centrifuged to remove debris.
(§3) On Biacore T100, rabbit anti-GFP antibody or goat anti-GFP antibody is immobilized onto flow cell 1 to 4 of a CMS chip at 5000-15000 Rus. FPN1-GFP is captured onto flow cell 2, 3, or 4 from the lysate of induced cells. Flow cell 1 is used as reference. Then all flow cells are injected with different concentrations of antibodies to evaluate the binding and kinetics.

[11] = biological target: T2, human FPN1 C-terminally fused with GFP; test: SPR, Biacore T100, 25 C, 1:1 model; FPN1-GFP captured from cell lysate on rabbit anti-GFP antibody, Mab injected
Method: as §2, §3

peptide 0708L4D = biological target: T3, peptide 0708L4D (human); test: dot blot: peptide spotted on nitrocellulose, probed with Mab 34A9, IR700-labeled goat anti-mouse detection
T3 peptide: GGRSRFIQGESITPTKGC
Method: (§4) For each peptide, 3 μl of 1-5 μg/mL peptide is spotted onto a piece of nitrocellulose membrane and air dried. The membrane is blocked with blocking buffer (e.g., PBS containing 1% BSA), then incubated with 3-5 μg/mL FPN1 antibody in blocking buffer at room temperature for an hour. The membrane is washed three times, 5 min each, with 1×PBST (10 mM sodium phosphate, 150 mM NaCl, 0.1% Tween-20, pH 7.4) before it is incubated with IR700-labeled-Goat-anti-Mouse antibody according to manufacturer's protocol (LiCor, Inc; Lincoln, Nebr.). The membrane is washed three times, five minutes each, with 1×PBST, is imaged on Odyssey imaging system and Odyssey software (LiCor, Inc).

peptide FpnE3a = biological target: T4, peptide FpnE3a (human); test: as above
T4 peptide: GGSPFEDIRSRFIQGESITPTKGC
Method: as §4

peptide 060719Z = biological target: T5, peptide 060719Z (human); test: as above
T5 peptide: GGSPFEDIRSRFIQGC
Method: as §4

peptide 0708L4C = biological target: T6, peptide 0708L4C (human); test: as above
T6 peptide: GGEDIRSRFIQGESITGC
Method: as §4

[12] = biological target: T2, human FPN1 C-terminally fused with GFP; test: SPR, Biacore T100, 37 C, 1:1 model; FPN1-GFP captured from cell lysate on rabbit anti-GFP antibody, Fab injected
Method: as §2, §3

[13] = biological target: T2, human FPN1 C-terminally fused with GFP; test: SPR, Biacore T100, 37 C; KD of Fab 1G9 against KD of Fab 34A9 (Table 4(a))
From the text: The affinities of FPN1 binding Fabs and Mabs may be determined on Biacore T100 and using 1:1 binding model in the Biacore T100 evaluation software (BIAcore® AB, Upsala, Sweden). Briefly, the T-REx system, a commercially available tetracycline-regulated expression system without viral transactivators (Invitrogen, Carlsbad, Calif.) is used for stable cell line generation in T-Rex HEK 293 cells. All growth conditions are described in the T-REx manual provided by Invitrogen. FPN1 is C-terminally fused with GFP. Expression of FPN1-GFP is induced by 1-10 ng/mL doxycycline for 1-24 hours. Induced cells are harvested by scraping off from flasks and then washed with 1×PBS. Cell pellets can be stored at −80° C. before use. About five million induced cells are resuspended in 10 mM phosphate buffer with 0.2% Tween-20 and protease inhibitors, e.g., Complete™ Protease Inhibitor Cocktail Tablet (Roche Diagnostics Corp., Indianapolis, Ind.). Three cycles of freeze/thaw/sonication are used to lyse the cells. The lysate is diluted two-fold with Biacore running buffer and centrifuged to remove debris.
On Biacore T100, rabbit anti-GFP antibody or goat anti-GFP antibody is immobilized onto flow cell 1 to 4 of a CMS chip at 5000-15000 Rus. FPN1-GFP is captured onto flow cell 2, 3, or 4 from the lysate of induced cells. Flow cell 1 is used as reference. […]

[14] = biological target: T2, human FPN1 C-terminally fused with GFP; test: SPR, Biacore T100, 37 C, 1:1 model; FPN1-GFP captured from cell lysate on goat anti-GFP antibody, Fab injected; n = 4
Method: as §2, §3

B1: Mab 3D8 (antibody, human IgG4 S228P, kappa, F234A L235A, V domains shown)
VH: QVQLVQSGAEVKKPGSSVKVSCKASGYAFTSFLIEWVRQAPGQGLEWMGTSNPRTGGTKYKEKFRGRVTITADKSTSTAYMELSSLRSEDTAVYYCAREFFDYWGQGTTVTVSS
VL: DIQMTQSPSSLSASVGDRVTITCRASKSISKYTAWYQQKPGKAPKLLIYAGSKLHSGVPSRFSGSGSGTDFTLTISSLQPEDFATYYCQQHNEYPYTFGGGTKVEIKR
notes: Humanized form of mouse 1G9 with human heavy chain framework VH1-69 and light chain framework O2; also called human 3D8
% Inhibition (human ferroportin 1 [1]): 4% | Absolute IC50 of inhibition of hepcidin-25-induced internalization and degradation of FPN1-GFP [2]: 13.7 nM | Relative IC50 of inhibition of hepcidin-25-induced internalization and degradation of FPN1-GFP [2]: 10.2 nM | Top % Inhibition of hepcidin-25-induced internalization and degradation of FPN1-GFP [2]: 86.8% | EC50 of inhibition of mature hepcidin induced increase in cellular ferritin, Caco-2 cells (human ferroportin 1 [3]): 360 nM | Percentage inhibition of mature hepcidin induced increase in cellular ferritin, Caco-2 cells, Mab at 2.22E-7 M (human ferroportin 1 [3]): 25.2% | Percentage inhibition of mature hepcidin induced increase in cellular ferritin, Caco-2 cells, Mab at 2.47E-8 M (human ferroportin 1 [3]): 3.4% | Percentage inhibition of mature hepcidin induced increase in cellular ferritin, Caco-2 cells, Mab at 2.7E-9 M (human ferroportin 1 [3]): 10.6% | Percentage inhibition of mature hepcidin induced increase in cellular ferritin, Caco-2 cells, Mab at 3.0E-10 M (human ferroportin 1 [3]): 7.3% | Percentage inhibition of mature hepcidin induced increase in cellular ferritin, Caco-2 cells, Mab at 6.67E-7 M (human ferroportin 1 [3]): 29.8% | Percentage inhibition of mature hepcidin induced increase in cellular ferritin, Caco-2 cells, Mab at 7.4E-8 M (human ferroportin 1 [3]): 12% | Percentage inhibition of mature hepcidin induced increase in cellular ferritin, Caco-2 cells, Mab at 8.0E-9 M (human ferroportin 1 [3]): 14.9% | Percentage inhibition of mature hepcidin induced increase in cellular ferritin, Caco-2 cells, Mab at 9.0E-10 M (human ferroportin 1 [3]): 8.6% | % Inhibition (human ferroportin 1 [4]): -2.8% | % Inhibition (human ferroportin 1 [5]): 54.7% | % Inhibition (human ferroportin 1 [6]): 64.7% | % Inhibition (human ferroportin 1 [7]): 21.8% | Percent (%) Inhibition of Mature Human Hepcidin-induced Internalization and Degradation, Mab at 7.4 nM [8]: 28.1% | Percent (%) Inhibition of Mature Human Hepcidin-induced Internalization and Degradation, Mab at 22 nM [8]: 50.2% | Percent (%) Inhibition of Mature Human Hepcidin-induced Internalization and Degradation, Mab at 67 nM [8]: 55.7% | Percent (%) Inhibition of Mature Human Hepcidin-induced Internalization and Degradation, Mab at 200 nM [8]: 63.8% | Percent (%) Inhibition of Mature Human Hepcidin-induced Internalization and Degradation, Mab at 600 nM [8]: 66.4% | IC50 (human ferroportin 1 [9]): ~400 nM | Kd [10]: 3.37 nM | koff [10]: 0.0011 s⁻¹ | kon [10]: 325000 M⁻¹ s⁻¹

B2: Mab 34A9 (antibody, mouse IgG1, kappa, V domains shown)
VH: QVQLKQSGAELVRPGTSVKVSCKASGYAFTNFLIEWLKQRPGQGLEWIGTINPETGGTKYNEKFRGKATLTADKSSSTAYMQLNSLTSDDSAVYFCVREFFDYWGQGTSLTVSS
VL: ETTVTQSPSYLAASPGETITINCRASKSISKYLAWFQEKPGKTNKLLIYAGSTLHSGIPSRFSGSGSGTDFTLTISSLEPEDFAMYYCQQHNEYPYTFGGGTKLELKR
notes: Mouse monoclonal antibody against human FPN1; also called mouse 34A9; mouse Mab 34A9
Relative IC50 of inhibition of hepcidin-25-induced internalization and degradation of FPN1-GFP [2]: 58.9 nM | Top % Inhibition of hepcidin-25-induced internalization and degradation of FPN1-GFP [2]: 55.2% | Kd [11]: 1.18 nM | koff [11]: 8.16e-05 s⁻¹ | kon [11]: 69000 M⁻¹ s⁻¹ | binding result (peptide 0708L4D): binds | binding result (peptide FpnE3a): binds | binding result (peptide 060719Z): binds | binding result (peptide 0708L4C): binds | Percent (%) Inhibition of Mature Human Hepcidin-induced Internalization and Degradation, Mab at 7.4 nM [8]: 4.8% | Percent (%) Inhibition of Mature Human Hepcidin-induced Internalization and Degradation, Mab at 22 nM [8]: 14.1% | Percent (%) Inhibition of Mature Human Hepcidin-induced Internalization and Degradation, Mab at 67 nM [8]: 23.6% | Percent (%) Inhibition of Mature Human Hepcidin-induced Internalization and Degradation, Mab at 200 nM [8]: 30.8% | Percent (%) Inhibition of Mature Human Hepcidin-induced Internalization and Degradation, Mab at 600 nM [8]: 39%

B3: Fab 1G9 (Fab, V domains shown)
VH: QVQLKQSGAELVRPGTSVKVSCKASGYAFTSFLIEWLKQRPGQGLEWIGTINPRTGGTKYNEKFRGKATLTADKSSSTAYMQLNSLTSDDSAVYFCVREFFDYWGQGTSLTVSS
VL: ETTVTQSPSYLAASPGETITINCRASKSISKYLAWFQEKPGKTNKLLIYAGSKLHSGIPSRFSGSGSGTDFTLTISSLEPEDFAMYYCFQHNEYPYTFGGGTKLELK
notes: also called mouse 1G9; mouse Fab 1G9
Kd [12]: 7.71 nM | koff [12]: 0.000897 s⁻¹ | kon [12]: 127000 M⁻¹ s⁻¹ | fold improvement in binding affinity over mouse Fab 34A9 [13]: ~5 fold | Kd [14]: 2.9 nM | koff [14]: 0.000497 s⁻¹ | kon [14]: 173000 M⁻¹ s⁻¹
